Patent US20220372155A1 (LYVGEN BIOPHARMA, published 2022)

Assays:
[1] = target: T1, human CD40 expressed on CHO cells (human, UniProt P25942 21-277); assay: FACS, CHO cells
T1 construct: whole, on cells; also used for the reporter cells over-expressing human CD40; also called cellular CD40; CHO-CD40 cells

[2] = target: T2, Human CD40 ECD protein (mouse IgG2a Fc tag) (human, UniProt P25942 21-193); assay: bridging ELISA, coated B7H3-His, soluble CD40-msFc
T2 construct: extracellular domain; also called Human CD40-msFc; human recombinant CD40; not shown: mouse IgG2a Fc tag
Method: Anti-B7H3/CD40 bi-specific antibodies were analyzed by ELISA for their simultaneous binding to recombinant human B7H3 and human CD40. Briefly, Human B7H3 CD protein (His-tag) was diluted and coated onto an ELISA plate with a volume of […] by incubation at 4° C. overnight. The next day, the plate was blocked with PBST-BSA buffer, then serially diluted samples of anti-B7H3/CD40 bi-specific antibodies were pipetted into appropriate wells at 50 μL/well, and the plate was incubated for 1 h followed by washing. Human CD40-msFc antibody was added into the plate at 50 μL/well. After 1-hour incubation at room temperature, […] anti-Mouse IgG (H+L) antibody was added into the plate at 100 μL/well. The plate was incubated for 1 hour at room temperature followed by washing. TMB substrate solution was added at 100 p L/well and the color development was stopped by adding 100 uUwell Stop Solution (2N H2SO4). Absorbance at 450 nm and 620 nm was read by Tecan F200 Pro plate reader. GraphPad 7.0, “[Agonist] vs. response—Variable slope (four parameters)” was used to plot the binding data and calculate binding EC50 values.

T2 sequence (P25942 21-193): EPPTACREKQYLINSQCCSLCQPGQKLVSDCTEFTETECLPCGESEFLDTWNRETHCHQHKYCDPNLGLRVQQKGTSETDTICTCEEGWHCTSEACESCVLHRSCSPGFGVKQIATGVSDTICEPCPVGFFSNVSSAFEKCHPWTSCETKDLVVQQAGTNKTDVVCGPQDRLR
T1 sequence (P25942 21-277): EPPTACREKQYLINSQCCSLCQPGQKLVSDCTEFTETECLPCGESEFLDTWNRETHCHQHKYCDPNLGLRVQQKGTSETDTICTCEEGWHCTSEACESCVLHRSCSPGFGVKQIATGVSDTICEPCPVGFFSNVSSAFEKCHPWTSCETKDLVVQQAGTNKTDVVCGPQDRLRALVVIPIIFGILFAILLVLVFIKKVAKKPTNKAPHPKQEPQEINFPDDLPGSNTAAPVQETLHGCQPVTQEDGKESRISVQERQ

binding result [1] | binding result [2] | Binder
binds | binds | Ly615 (bispecific antibody, human IgG1, kappa, Ly387 HC (IgG1 mutated Fc)-TM740 scFv VH-VL + Ly387 LC) heavy: QVQLQQPGAELVKPGASVKLSCKASGYTFTSYWMHWVKQRPGQGLEWIGMIHPNSGGTNYNEKFKGKGTLTVDKSSSTAYMQLSSLTSDDSAVYYCVTSQATWFAYWGQGTLVTVSAASTKGPSVFPLAPSSKSTSGGTAALGCLVKDYFPEPVTVSWNSGALTSGVHTFPAVLQSSGLYSLSSVVTVPSSSLGTQTYICNVNHKPSNTKVDKKVEPKSCDKTHTCPPCPAPELLGPSVFLFPPKPKDTLMISRTPEVTCVVVDVSHEDPEVKFNWYVDGVEVHNAKTKPREEQYNSTYRVVSVLTVLHQDWLNGKEYKCKVSNKALPAPIEKTISKAKGQPREPQVYTLPPSREEMTKNQVSLTCLVKGFYPSDIAVEWESNGQPENNYKTTPPVLDSDGSFFLYSKLTVDKSRWQQGNVFSCSVMHEALHNHYTQKSLSLSPGGGGGSGGGGSGGGGSGGGGSQVQLVESGGGLVQPGGSLKLSCATSGFNFNDYFMNWVRQASGKGLEWVGQIRNKNYNYATYYTESLEGRVTISRDDSKNTAYLQMNSLKTEDTAVYYCTSYYYDGFADYFDYWGQGTTVTVSSGGGGSGGGGSGGGGSGGGGSDIQMTQSPSSLSASVGDRVTITCKASQNIYIYLNWYQQKPGKAPKLLIYNTNNLQTGVPSRFSGSGSGTDFTLTISSLQPEDFATYYCLQHSSRRTFGGGTKVEIK light: ENVLTQSPAIMSVSPGEKVTMTCRASSSVSSSYLHWYQQKSGASPKFWIYSTSNLASGVPARFSGSGSGTSYSLTISSVEAEDAATYYCQHYSGYPLTFGAGTKLELRRTVAAPSVFIFPPSDEQLKSGTASVVCLLNNFYPREAKVQWKVDNALQSGNSQESVTEQDSKDSTYSLSSTLTLSKADYEKHKVYACEVTHQGLSSPVTKSFNRGEC
binds | binds | Ly616 (bispecific antibody, human IgG1, kappa, Ly387 HC (IgG1 mutated Fc)-TM559 scFv VL-VH + Ly387 LC) heavy: QVQLQQPGAELVKPGASVKLSCKASGYTFTSYWMHWVKQRPGQGLEWIGMIHPNSGGTNYNEKFKGKGTLTVDKSSSTAYMQLSSLTSDDSAVYYCVTSQATWFAYWGQGTLVTVSAASTKGPSVFPLAPSSKSTSGGTAALGCLVKDYFPEPVTVSWNSGALTSGVHTFPAVLQSSGLYSLSSVVTVPSSSLGTQTYICNVNHKPSNTKVDKKVEPKSCDKTHTCPPCPAPELLGPSVFLFPPKPKDTLMISRTPEVTCVVVDVSHEDPEVKFNWYVDGVEVHNAKTKPREEQYNSTYRVVSVLTVLHQDWLNGKEYKCKVSNKALPAPIEKTISKAKGQPREPQVYTLPPSREEMTKNQVSLTCLVKGFYPSDIAVEWESNGQPENNYKTTPPVLDSDGSFFLYSKLTVDKSRWQQGNVFSCSVMHEALHNHYTQKSLSLSPGGGGGSGGGGSGGGGSGGGGSDIQMTQSPSSLSASVGDRVTITCLASEDISNDLAWYQQKPGKAPKLLIYFVDRLLDGVPSRFSGSGSGTDFTLTISSLQPEDFATYYCQQSYKYPPTFGQGTKLEIKGGGGSGGGGSGGGGSGGGGSEVQLVESGGGLVQPGGSLRLSCAASGFTFTNYGLHWVRQAPGKGLEWVSSISPSGGVTYYRDSVKGRFTISRDNSKNTLYLQMNSLRAEDTAVYYCAKPFLGWGGANWIAHWGQGTLVTVSS light: ENVLTQSPAIMSVSPGEKVTMTCRASSSVSSSYLHWYQQKSGASPKFWIYSTSNLASGVPARFSGSGSGTSYSLTISSVEAEDAATYYCQHYSGYPLTFGAGTKLELRRTVAAPSVFIFPPSDEQLKSGTASVVCLLNNFYPREAKVQWKVDNALQSGNSQESVTEQDSKDSTYSLSSTLTLSKADYEKHKVYACEVTHQGLSSPVTKSFNRGEC
